Test results taken from the supplement of paper PMC9112550, “Optimization of the antimicrobial peptide Bac7 by deep mutational scanning” (BMC Biology, 2022).

tested on: Escherichia coli TOP10; assay: shrunken log2 fold change of peptide-encoding DNA abundance (4.5 h post-induction vs induction); higher = less antimicrobial activity (less host growth inhibition); details: time post-induction: 4.5 h; library: site-saturation at positions 5, 18, 19, 20
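Also: peptides expressed intracellularly from a pBAD plasmid library in pooled LB shake-flask culture, induced with 0.3% L-arabinose, DNA abundance read by NGS, three biological replicates, DESeq2 with apeglm shrinkage.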

Row | Sequence | shrunken log2 fold change
1 | RRIRARPPRLPRPRPRPFMGPRP | -0.255
2 | RRIRARPPRLPRPRPRPFMIPRP | -0.1
3 | RRIRARPPRLPRPRPRPFPDPRP | 0.262
4 | RRIRARPPRLPRPRPRPFSCPRP | -0.122
5 | RRIRARPPRLPRPRPRPFSFPRP | -0.235
6 | RRIRARPPRLPRPRPRPFSKPRP | -0.301
7 | RRIRARPPRLPRPRPRPFSLPRP | 0.0486
8 | RRIRARPPRLPRPRPRPFTMPRP | -0.378
9 | RRIRARPPRLPRPRPRPFWHPRP | 0.165
10 | RRIRARPPRLPRPRPRPFWIPRP | -0.0619
11 | RRIRARPPRLPRPRPRPFWQPRP | 0.0762
12 | RRIRARPPRLPRPRPRPFYLPRP | -0.515
13 | RRIRARPPRLPRPRPRPGCWPRP | 0.965
14 | RRIRARPPRLPRPRPRPGDAPRP | 0.711
15 | RRIRARPPRLPRPRPRPGDWPRP | 0.8
16 | RRIRARPPRLPRPRPRPGDYPRP | 0.226
17 | RRIRARPPRLPRPRPRPGEKPRP | 0.333
18 | RRIRARPPRLPRPRPRPGESPRP | 0.014
19 | RRIRARPPRLPRPRPRPGGHPRP | 0.115
20 | RRIRARPPRLPRPRPRPGGMPRP | 0.337
21 | RRIRARPPRLPRPRPRPGINPRP | -0.242
22 | RRIRARPPRLPRPRPRPGIRPRP | 0.475

Row | Sequence | shrunken log2 fold change
23 | RRIRARPPRLPRPRPRPGIVPRP | 0.174
24 | RRIRARPPRLPRPRPRPGKFPRP | -0.167
25 | RRIRARPPRLPRPRPRPGLHPRP | 0.275
26 | RRIRARPPRLPRPRPRPGMEPRP | 0.161
27 | RRIRARPPRLPRPRPRPGMHPRP | 0.233
28 | RRIRARPPRLPRPRPRPGRHPRP | 0.159
29 | RRIRARPPRLPRPRPRPGSRPRP | 0.279
30 | RRIRARPPRLPRPRPRPGVTPRP | 0.611
31 | RRIRARPPRLPRPRPRPHAHPRP | 0.254
32 | RRIRARPPRLPRPRPRPHDFPRP | 0.0354
33 | RRIRARPPRLPRPRPRPHDHPRP | -0.0299
34 | RRIRARPPRLPRPRPRPHECPRP | 0.423
35 | RRIRARPPRLPRPRPRPHEGPRP | 0.148
36 | RRIRARPPRLPRPRPRPHENPRP | 0.127
37 | RRIRARPPRLPRPRPRPHEWPRP | 0.311
38 | RRIRARPPRLPRPRPRPHGAPRP | 0.52
39 | RRIRARPPRLPRPRPRPHGCPRP | 0.128
40 | RRIRARPPRLPRPRPRPHGGPRP | 0.301
41 | RRIRARPPRLPRPRPRPHHEPRP | -0.119
42 | RRIRARPPRLPRPRPRPHHIPRP | -0.345
43 | RRIRARPPRLPRPRPRPHHNPRP | -0.483
44 | RRIRARPPRLPRPRPRPHHSPRP | -0.404

Row | Sequence | shrunken log2 fold change
45 | RRIRARPPRLPRPRPRPHHTPRP | -0.364
46 | RRIRARPPRLPRPRPRPHKSPRP | 0.42
47 | RRIRARPPRLPRPRPRPHLDPRP | 0.324
48 | RRIRARPPRLPRPRPRPHLSPRP | 0.0969
49 | RRIRARPPRLPRPRPRPHMCPRP | -0.174
50 | RRIRARPPRLPRPRPRPHMHPRP | -0.152
51 | RRIRARPPRLPRPRPRPHMPPRP | -0.419
52 | RRIRARPPRLPRPRPRPHNDPRP | -0.34
53 | RRIRARPPRLPRPRPRPHPDPRP | 0.395
54 | RRIRARPPRLPRPRPRPHPHPRP | 0.322
55 | RRIRARPPRLPRPRPRPHQQPRP | 0.33
56 | RRIRARPPRLPRPRPRPHRHPRP | -0.0481
57 | RRIRARPPRLPRPRPRPHSCPRP | 0.0724
58 | RRIRARPPRLPRPRPRPHSPPRP | 0.122
59 | RRIRARPPRLPRPRPRPHSWPRP | 0.475
60 | RRIRARPPRLPRPRPRPHTFPRP | -0.314
61 | RRIRARPPRLPRPRPRPHTKPRP | 0.0902
62 | RRIRARPPRLPRPRPRPHVFPRP | 0.0326
63 | RRIRARPPRLPRPRPRPHWGPRP | 0.119
64 | RRIRARPPRLPRPRPRPHWPPRP | 0.233
65 | RRIRARPPRLPRPRPRPHWTPRP | -0.0108
66 | RRIRARPPRLPRPRPRPHYLPRP | -0.503

Row | Sequence | shrunken log2 fold change
67 | RRIRARPPRLPRPRPRPHYPPRP | -1.36
68 | RRIRARPPRLPRPRPRPIEDPRP | -0.0663
69 | RRIRARPPRLPRPRPRPIFEPRP | 0.125
70 | RRIRARPPRLPRPRPRPIFGPRP | 0.0662
71 | RRIRARPPRLPRPRPRPIFLPRP | -0.0119
72 | RRIRARPPRLPRPRPRPIGKPRP | -0.00841
73 | RRIRARPPRLPRPRPRPIHAPRP | 0.0915
74 | RRIRARPPRLPRPRPRPIIQPRP | -0.206
75 | RRIRARPPRLPRPRPRPIKDPRP | 0.0786
76 | RRIRARPPRLPRPRPRPILLPRP | -0.293
77 | RRIRARPPRLPRPRPRPIMEPRP | 0.0783
78 | RRIRARPPRLPRPRPRPIMTPRP | 0.0421
79 | RRIRARPPRLPRPRPRPINQPRP | -0.195
80 | RRIRARPPRLPRPRPRPIPEPRP | 0.0265
81 | RRIRARPPRLPRPRPRPIPQPRP | -0.0224
82 | RRIRARPPRLPRPRPRPIPTPRP | -0.0942
83 | RRIRARPPRLPRPRPRPIQDPRP | 0.0826
84 | RRIRARPPRLPRPRPRPIRLPRP | -0.0928
85 | RRIRARPPRLPRPRPRPIRQPRP | -0.00194
86 | RRIRARPPRLPRPRPRPIRWPRP | 0.211
87 | RRIRARPPRLPRPRPRPISMPRP | 0.0208
88 | RRIRARPPRLPRPRPRPITIPRP | 0.222

Row | Sequence | shrunken log2 fold change
89 | RRIRARPPRLPRPRPRPITQPRP | -0.0161
90 | RRIRARPPRLPRPRPRPIVNPRP | -0.178
91 | RRIRARPPRLPRPRPRPIVQPRP | 0.0602
92 | RRIRARPPRLPRPRPRPIWIPRP | 0.123
93 | RRIRARPPRLPRPRPRPIWNPRP | -0.0575
94 | RRIRARPPRLPRPRPRPIYGPRP | 0.0455
95 | RRIRARPPRLPRPRPRPKAHPRP | 0.491
96 | RRIRARPPRLPRPRPRPKCKPRP | 0.278
97 | RRIRARPPRLPRPRPRPKCNPRP | 0.0681
98 | RRIRARPPRLPRPRPRPKCSPRP | 0.0215
99 | RRIRARPPRLPRPRPRPKDHPRP | 0.175
100 | RRIRARPPRLPRPRPRPKETPRP | 0.229
101 | RRIRARPPRLPRPRPRPKGRPRP | 0.368
102 | RRIRARPPRLPRPRPRPKHRPRP | 0.556
103 | RRIRARPPRLPRPRPRPKIEPRP | 0.173
104 | RRIRARPPRLPRPRPRPKIFPRP | -0.0226
105 | RRIRARPPRLPRPRPRPKLGPRP | 0.023
106 | RRIRARPPRLPRPRPRPKMQPRP | 0.32
107 | RRIRARPPRLPRPRPRPKMTPRP | 0.365
108 | RRIRARPPRLPRPRPRPKNRPRP | 0.134
109 | RRIRARPPRLPRPRPRPKNVPRP | 0.166
